Among the data in paper doi:10.1101/2022.03.02.482546 are Kd values, retold here.

The experiment concerns the target soluble form of full-length LRP1 (low-density lipoprotein receptor-related protein 1) (human). Briefly: ELISA. For orientation: An ELISA detects its analyte on a solid surface through an enzyme-linked reagent.

By Kd is commonly meant the constant that tells how readily two partners part at equilibrium. Lower therefore signals a tighter complex.

The molecule “recombinant human tumour necrosis factor-inducible gene 6 protein (from UniProt P98066 18-277) (natural protein)” had a Kd of 11 nM.

“recombinant human high-mobility group protein B1 (from UniProt P09429 1-215) (natural protein)”: the Kd is 6.4 nM.

In turn, “recombinant human ADAMTS1 (from UniProt Q9UHI8 50-967) (enzyme)” displayed a Kd of 20.2 nM.

“recombinant human leukemia inhibitory factor (from UniProt P15018 23-202) (ligand)” came in with a Kd of over 200 nM.

B1: recombinant human hepatocyte growth factor activator (enzyme)
chain: QPGGNRTESPEPNATATPAIPTILVTSVTSETPATSAPEAEGPQSGGLPPPPRAVPSSSSPQAQALTEDGRPCRFPFRYGGRMLHACTSEGSAHRKWCATTHNYDRDRAWGYCVEATPPPGGPAALDPCASGPCLNGGSCSNTQDPQSYHCSCPRAFTGKDCGTEKCFDETRYEYLEGGDRWARVRQGHVEQCECFGGRTWCEGTRHTACLSSPCLNGGTCHLIVATGTTVCACPPGFAGRLCNIEPDERCFLGNGTGYRGVASTSASGLSCLAWNSDLLYQELHVDSVGAAALLGLGPHAYCRNPDNDERPWCYVVKDSALSWEYCRLEACESLTRVQLSPDLLATLPEPASPGRQACGRRHKKRTFLRPRIIGGSSSLPGSHPWLAAIYIGDSFCAGSLVHTCWVVSAAHCFSHSPPRDSVSVVLGQHFFNRTTDVTQTFGIEKYIPYTLYSVFNPSDHDLVLIRLKKKGDRCATRSQFVQPICLPEPGSTFPAGHKCQIAGWGHLDENVSGYSSSLREALVPLVADHKCSSPEVYGADISPNMLCAGYFDCKSDACQGDSGGPLACEKNGVAYLYGIISWGDGCGRLHKPGVYTRVANYVDWINDRIRPPRRLVAPS
With B1, the Kd is over 500 nM.

B2: full-length human CEMIP (cell migration-inducing and hyaluronan-binding protein) (natural protein)
chain: TVAAGCPDQSPELQPWNPGHDQDHHVHIGQGKTLLLTSSATVYSIHISEGGKLVIKDHDEPIVLRTRHILIDNGGELHAGSALCPFQGNFTIILYGRADEGIQPDPYYGLKYIGVGKGGALELHGQKKLSWTFLNKTLHPGGMAEGGYFFERSWGHRGVIVHVIDPKSGTVIHSDRFDTYRSKKESERLVQYLNAVPDGRILSVAVNDEGSRNLDDMARKAMTKLGSKHFLHLGFRHPWSFLTVKGNPSSSVEDHIEYHGHRGSAAARVFKLFQTEHGEYFNVSLSSEWVQDVEWTEWFDHDKVSQTKGGEKISDLWKAHPGKICNRPIDIQATTMDGVNLSTEVVYKKGQDYRFACYDRGRACRSYRVRFLCGKPVRPKLTVTIDTNVNSTILNLEDNVQSWKPGDTLVIASTDYSMYQAEEFQVLPCRSCAPNQVKVAGKPMYLHIGEEIDGVDMRAEVGLLSRNIIVMGEMEDKCYPYRNHICNFFDFDTFGGHIKFALGFKAAHLEGTELKHMGQQLVGQYPIHFHLAGDVDERGGYDPPTYIRDLSIHHTFSRCVTVHGSNGLLIKDVVGYNSLGHCFFTEDGPEERNTFDHCLGLLVKSGTLLPSDRDSKMCKMITEDSYPGYIPKPRQDCNAVSTFWMANPNNNLINCAAAGSEETGFWFIFHHVPTGPSVGMYSPGYSEHIPLGKFYNNRAHSNYRAGMIIDNGVKTTEASAKDKRPFLSIISARYSPHQDADPLKPREPAIIRHFIAYKNQDHGAWLRGGDVWLDSCRFADNGIGLTLASGGTFPYDDGSKQEIKNSLFVGESGNVGTEMMDNRIWGPGGLDHSGRTLPIGQNFPIRGIQLYDGPINIQNCTFRKFVALEGRHTSALAFRLNNAWQSCPHNNVTGIAFEDVPITSRVFFGEPGPWFNQLDMDGDKTSVFHDVDGSVSEYPGSYLTKNDNWLVRHPDCINVPDWRGAICSGCYAQMYIQAYKTSNLRMKIIKNDFPSHPLYLEGALTRSTHYQQYQPVVTLQKGYTIHWDQTAPAELAIWLINFNKGDWIRVGLCYPRGTTFSILSDVHNRLLKQTSKTGVFVRTLQMDKVEQSYPGRSHYYWDEDSGLLFLKLKAQNEREKFAFCSMKGCERIKIKALIPKNAGVSDCTATAYPKFTERAVVDVPMPKKLFGSQLKTKDHFLEVKMESSKQHFFHLWNDFAYIEVDGKKYPSSEDGIQVVVIDGNQGRVVSHTSFRNSILQGIPWQLFNYVATIPDNSIVLMASKGRYVSRGPWTRVLEKLGADRGLKLKEQMAFVGFKGSFRPIWVTLDTEDHKAKIFQVVPIPVVKKKKL
In turn, B2 returned a Kd of 2.6 nM.

B3: recombinant human slit homolog 2 protein (ligand)
chain: QCSCSGSTVDCHGLALRSVPRNIPRNTERLDLNGNNITRITKTDFAGLRHLRVLQLMENKISTIERGAFQDLKELERLRLNRNHLQLFPELLFLGTAKLYRLDLSENQIQAIPRKAFRGAVDIKNLQLDYNQISCIEDGAFRALRDLEVLTLNNNNITRLSVASFNHMPKLRTFRLHSNNLYCDCHLAWLSDWLRQRPRVGLYTQCMGPSHLRGHNVAEVQKREFVCSGHQSFMAPSCSVLHCPAACTCSNNIVDCRGKGLTEIPTNLPETITEIRLEQNTIKVIPPGAFSPYKKLRRIDLSNNQISELAPDAFQGLRSLNSLVLYGNKITELPKSLFEGLFSLQLLLLNANKINCLRVDAFQDLHNLNLLSLYDNKLQTIAKGTFSPLRAIQTMHLAQNPFICDCHLKWLADYLHTNPIETSGARCTSPRRLANKRIGQIKSKKFRCSAKEQYFIPGTEDYRSKLSGDCFADLACPEKCRCEGTTVDCSNQKLNKIPEHIPQYTAELRLNNNEFTVLEATGIFKKLPQLRKINFSNNKITDIEEGAFEGASGVNEILLTSNRLENVQHKMFKGLESLKTLMLRSNRITCVGNDSFIGLSSVRLLSLYDNQITTVAPGAFDTLHSLSTLNLLANPFNCNCYLAWLGEWLRKKRIVTGNPRCQKPYFLKEIPIQDVAIQDFTCDDGNDDNSCSPLSRCPTECTCLDTVVRCSNKGLKVLPKGIPRDVTELYLDGNQFTLVPKELSNYKHLTLIDLSNNRISTLSNQSFSNMTQLLTLILSYNRLRCIPPRTFDGLKSLRLLSLHGNDISVVPEGAFNDLSALSHLAIGANPLYCDCNMQWLSDWVKSEYKEPGIARCAGPGEMADKLLLTTPSKKFTCQGPVDVNILAKCNPCLSNPCKNDGTCNSDPVDFYRCTCPYGFKGQDCDVPIHACISNPCKHGGTCHLKEGEEDGFWCICADGFEGENCEVNVDDCEDNDCENNSTCVDGINNYTCLCPPEYTGELCEEKLDFCAQDLNPCQHDSKCILTPKGFKCDCTPGYVGEHCDIDFDDCQDNKCKNGAHCTDAVNGYTCICPEGYSGLFCEFSPPMVLPRTSPCDNFDCQNGAQCIVRINEPICQCLPGYQGEKCEKLVSVNFINKESYLQIPSAKVRPQTNITLQIATDEDSGILLYKGDKDHIAVELYRGRVRASYDTGSHPASAIYSVETINDGNFHIVELLALDQSLSLSVDGGNPKIITNLSKQSTLNFDSPLYVGGMPGKSNVASLRQAPGQNGTSFHGCIRNLYINSELQDFQKVPMQTGILPGCEPCHKKVCAHGTCQPSSQAGFTCECQEGWMGPLCDQRTNDPCLGNKCVHGTCLPINAFSYSCKCLEGHGGVLCDEEEDLFNPCQAIKCKHGKCRLSGLGQPYCECSSGYTGDSCDREISCRGERIRDYYQKQQGYAACQTTKKVSRLECRGGCAGGQCCGPLRSKRRKYSFECTDGSSFVDEVEKVVKCGCTRCVS
Consider B3, for which the Kd was found to be 2 nM.

B4: recombinant human secreted protein acidic and rich in cysteine (natural protein)
chain: APQQEALPDETEVVEETVAEVTEVSVGANPVQVEVGEFDDGAEETEEEVVAENPCQNHHCKHGKVCELDENNTPMCVCQDPTSCPAPIGEFEKVCSNDNKTFDSSCHFFATKCTLEGTKKGHKLHLDYIGPCKYIPPCLDSELTEFPLRMRDWLKNVLVTLYERDEDNNLLTEKQKLRVKKIHENEKRLEAGDHPVELLARDFEKNYNMYIFPVHWQFGQLDQHPIDGYLSHTELAPLRAPLIPMEHCTTRFFETCDLDNDKYIALDEWAGCFGIKQKDIDKDLVI
With B4, the Kd turned out to be 41 nM.

B5: recombinant human insulin-like growth factor-binding protein 7 (natural protein)
chain: SSSDTCGPCEPASCPPLPPLGCLLGETRDACGCCPMCARGEGEPCGGGGAGRGYCAPGMECVKSRKRRKGKAGAAAGGPGVSGVCVCKSRYPVCGSDGTTYPSGCQLRAASQRAESRGEKAITQVSKGTCEQGPSIVTPPKDIWNVTGAQVYLSCEVIGIPTPVLIWNKVKRGHYGVQRTELLPGDRDNLAIQTRGGPEKHEVTGWVLVSPLSKEDAGEYECHASNSQGQASASAKITVVDALHEIPVKKGEGAEL
In the case of B5, the Kd came out at 11 nM.

B6: recombinant human high-mobility group protein B2 (natural protein)
chain: MGKGDPNKPRGKMSSYAFFVQTCREEHKKKHPDSSVNFAEFSKKCSERWKTMSAKEKSKFEDMAKSDKARYDREMKNYVPPKGDKKGKKKDPNAPKRPPSAFFLFCSEHRPKIKSEHPGLSIGDTAKKLGEMWSEQSAKDKQPYEQKAAKLKEKYEKDIAAYRAKGKSEAGKKGPGRPTGSKKKNEPEDEEEEEEEEDEDEEEEDEDEE
For the molecule B6, the equilibrium dissociation constant (Kd) was 3.9 nM.
